This note sets out measurements from patent US8889419 (INDIANA UNIVERSITY RESEARCH AND TECHNOLOGY, dated 2014).

Assay [1] concerns the target T1, integrin VLA-4 on HL60 cells (UniProt P13612 34-1032; P05556 21-798).
T1 construct: whole, on cells; HL60 cells express VLA-4 but not VLA-5 by flow cytometry; also called CD49d
Put plainly: adhesion of HL60 cells (VLA-4 positive) to fragment-coated plates.

The target of assay [2] is T1, integrin VLA-4 on HL60 cells. Briefly: adhesion of HL60 cells to fragment-coated plates.

T1 sequence (P13612 34-1032, chain 1 of 2): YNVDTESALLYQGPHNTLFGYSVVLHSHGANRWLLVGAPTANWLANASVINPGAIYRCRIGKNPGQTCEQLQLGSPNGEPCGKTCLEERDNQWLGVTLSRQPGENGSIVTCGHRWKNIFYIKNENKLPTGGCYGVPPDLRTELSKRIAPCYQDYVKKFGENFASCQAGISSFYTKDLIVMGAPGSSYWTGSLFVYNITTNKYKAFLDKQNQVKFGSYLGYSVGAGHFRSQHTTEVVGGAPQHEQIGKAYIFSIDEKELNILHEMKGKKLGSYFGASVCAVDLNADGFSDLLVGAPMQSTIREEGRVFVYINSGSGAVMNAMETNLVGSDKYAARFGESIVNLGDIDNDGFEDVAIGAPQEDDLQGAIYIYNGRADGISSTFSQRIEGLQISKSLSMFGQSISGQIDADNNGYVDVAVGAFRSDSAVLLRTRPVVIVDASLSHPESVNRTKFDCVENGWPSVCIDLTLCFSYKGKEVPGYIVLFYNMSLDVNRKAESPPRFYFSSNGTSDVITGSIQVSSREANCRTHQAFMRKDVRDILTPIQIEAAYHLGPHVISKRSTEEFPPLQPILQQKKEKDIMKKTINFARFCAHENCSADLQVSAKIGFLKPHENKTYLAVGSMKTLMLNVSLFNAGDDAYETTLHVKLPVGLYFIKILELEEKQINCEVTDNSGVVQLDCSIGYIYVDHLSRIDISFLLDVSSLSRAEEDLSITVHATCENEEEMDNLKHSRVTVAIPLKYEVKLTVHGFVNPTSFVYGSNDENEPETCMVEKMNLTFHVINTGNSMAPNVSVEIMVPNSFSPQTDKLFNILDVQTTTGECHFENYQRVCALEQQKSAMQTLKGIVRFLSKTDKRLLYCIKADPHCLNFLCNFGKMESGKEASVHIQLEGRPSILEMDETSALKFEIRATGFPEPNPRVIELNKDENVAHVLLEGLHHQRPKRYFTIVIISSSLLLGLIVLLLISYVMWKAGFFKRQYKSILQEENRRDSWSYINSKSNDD
T1 sequence (P05556 21-798, chain 2 of 2): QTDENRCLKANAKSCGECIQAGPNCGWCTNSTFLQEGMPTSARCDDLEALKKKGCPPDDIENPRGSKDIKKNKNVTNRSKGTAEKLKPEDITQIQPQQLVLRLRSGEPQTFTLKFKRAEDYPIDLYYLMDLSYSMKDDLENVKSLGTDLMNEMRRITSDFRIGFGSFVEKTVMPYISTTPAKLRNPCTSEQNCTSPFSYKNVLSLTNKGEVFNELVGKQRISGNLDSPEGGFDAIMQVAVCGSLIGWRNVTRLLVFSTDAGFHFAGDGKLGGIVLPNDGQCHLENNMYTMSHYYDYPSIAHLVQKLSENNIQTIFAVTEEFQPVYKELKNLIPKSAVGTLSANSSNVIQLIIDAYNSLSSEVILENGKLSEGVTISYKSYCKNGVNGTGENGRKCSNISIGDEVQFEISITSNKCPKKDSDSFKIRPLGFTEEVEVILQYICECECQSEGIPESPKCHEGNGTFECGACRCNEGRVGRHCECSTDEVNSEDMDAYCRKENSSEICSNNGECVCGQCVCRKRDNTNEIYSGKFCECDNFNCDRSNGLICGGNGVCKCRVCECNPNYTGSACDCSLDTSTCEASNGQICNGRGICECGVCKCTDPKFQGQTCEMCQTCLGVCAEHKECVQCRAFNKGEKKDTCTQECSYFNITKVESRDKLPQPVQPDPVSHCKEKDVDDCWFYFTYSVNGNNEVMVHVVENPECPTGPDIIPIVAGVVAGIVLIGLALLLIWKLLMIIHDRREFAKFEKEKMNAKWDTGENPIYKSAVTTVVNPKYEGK

B1: recombinant fibronectin fragment H-296 (other, human, UniProt P02751 1812-2082, looked up)
chain: AIPAPTDLKFTQVTPTSLSAQWTPPNVQLTGYRVRVTPKEKTGPMKEINLAPDSSSVVVSGLMVATKYEVSVYALKDTLTSRPAQGVVTTLENVSPPRRARVTDATETTITISWRTKTETITGFQVDAVPANGQTPIQRTIKPDVRSYTITGLQPGTDYKIYLYTLNDNARSSPVVIDASTAIDAPSNLRFLATTPNSLLVSWQPPRARITGYIIKYEKPGSPPREVVPRPRPGVTEATITGLEPGTEYTIYVIALKNNQKSEPLIGRKKTDELPQLVTLPHPNLHGPEILDVPST
notes: Expressed in E. coli
As to B1, in assay [1], the binding result is on record as “binds”.

B2: recombinant fibronectin fragment H-271 (other, human, UniProt P02751 1812-2082, looked up)
chain: AIPAPTDLKFTQVTPTSLSAQWTPPNVQLTGYRVRVTPKEKTGPMKEINLAPDSSSVVVSGLMVATKYEVSVYALKDTLTSRPAQGVVTTLENVSPPRRARVTDATETTITISWRTKTETITGFQVDAVPANGQTPIQRTIKPDVRSYTITGLQPGTDYKIYLYTLNDNARSSPVVIDASTAIDAPSNLRFLATTPNSLLVSWQPPRARITGYIIKYEKPGSPPREVVPRPRPGVTEATITGLEPGTEYTIYVIALKNNQKSEPLIGRKKT
Turning to B2, in assay [2], the binding result was “no binding (tested: 2 µg/cm^2 coating)”.
